Test results from the supplement of paper PMC6757056.
± gives the standard deviation of the averaged measurements.

B1: library; a variant is named by its letters at N, in order (parent)
chain: GCUGUCACCGGUGUAUUACCCUAGUGGUCGACCGGUCUGAUGAGUCUNNNNNNAGACGAAACAGC

How the values were obtained:
[1] = variants of: B1; experiment: FACS-Seq fitted mean relative fluorescence mCherry/BFP without ligand (log10 relative fluorescence); ligand: hypoxanthine (xanthine aptamer); higher = higher reporter protein expression; conditions: HEK293T, ligand present: no
Experimental: (§1)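 Hammerhead (sTRSV) ribozyme switch libraries with a ligand aptamer grafted on stem I and a randomized N4-6 loop II, cloned into the 3' UTR of mCherry and transiently transfected into HEK293T cells; RNA-Seq 72 h post transfection with ligand added 1 h before transfection; RNA read count / plasmid DNA read count normalized to the non-cleaving sTRSVctl (x100), log10; sequences with >100 DNA reads. FACS-Seq: lentiviral library sorted into 6 bins after 48 h ligand, log-normal fit mean of mCherry/BFP scaled to controls. Printed sequences are partial switch sequences.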

[2] = variants of: B1; experiment: normalized RNA/DNA level with ligand (relative to sTRSVctl = 100) (log10 (% of sTRSVctl)); ligand: hypoxanthine (xanthine aptamer); higher = less ribozyme self-cleavage, higher mRNA level; conditions: ligand concentration (+) RNA-Seq: 5 mM, HEK293T, reporter: mCherry (pCS4076), ligand present: yes
Experimental: as §1

[3] = variants of: B1; experiment: normalized RNA/DNA level without ligand (relative to sTRSVctl = 100) (log10 (% of sTRSVctl)); ligand: hypoxanthine (xanthine aptamer); higher = less ribozyme self-cleavage, higher mRNA level; conditions: HEK293T, reporter: mCherry (pCS4076), ligand present: no
Experimental: as §1

[4] = variants of: B1; experiment: FACS-Seq fitted mean relative fluorescence mCherry/BFP with ligand (log10 relative fluorescence); ligand: hypoxanthine (xanthine aptamer); ligand concentration (+) FACS-Seq: 5 mM; higher = higher reporter protein expression; conditions: HEK293T, ligand present: yes
Experimental: as §1

Variant	FACS-Seq fitted mean (log10) [1]	normalized RNA/DNA level with ligand (log10) [2]	normalized RNA/DNA level without ligand (log10) [3]	FACS-Seq fitted mean (log10) [4]
GCUGUCACCGGUGUAUUACCCUAGUGGUCGACCGGUCUGAUGAGUCUCAAUGUAGACGAAACAGC	0.483 ± 0.12	1.91 ± 0.034	1.86 ± 0.062	0.48 ± 0.078
GCUGUCACCGGUGUAUUACCCUAGUGGUCGACCGGUCUGAUGAGUCUAACAAUAGACGAAACAGC	0.434 ± 0.044	1.89 ± 0.023	1.74 ± 0.042	0.249 ± 0.16
GCUGUCACCGGUGUAUUACCCUAGUGGUCGACCGGUCUGAUGAGUCUAACAAGAGACGAAACAGC	0.124 ± 0.013	1.85 ± 0.051	1.41 ± 0.098	0.462 ± 0.033
GCUGUCACCGGUGUAUUACCCUAGUGGUCGACCGGUCUGAUGAGUCUGACAAAAGACGAAACAGC	0.0314 ± 0.035	1.91 ± 0.058	1.774 ± 0.011	0.0426 ± 0.012
GCUGUCACCGGUGUAUUACCCUAGUGGUCGACCGGUCUGAUGAGUCUCAAUUUAGACGAAACAGC	-0.039 ± 0.03	1.932 ± 0.015	1.83 ± 0.034	0.406 ± 0.03
GCUGUCACCGGUGUAUUACCCUAGUGGUCGACCGGUCUGAUGAGUCUCAAUUGAGACGAAACAGC	0.324 ± 0.016	1.96 ± 0.026	1.894 ± 0.014	0.498 ± 0.044
GCUGUCACCGGUGUAUUACCCUAGUGGUCGACCGGUCUGAUGAGUCUCAAUUAAGACGAAACAGC	0.8094 ± 0.0076	1.89 ± 0.049	1.728 ± 0.0045	0.753 ± 0.03
GCUGUCACCGGUGUAUUACCCUAGUGGUCGACCGGUCUGAUGAGUCUAAAUUAAGACGAAACAGC	-0.311 ± 0.019	1.899 ± 0.016	1.83 ± 0.055	-0.0839 ± 0.038
GCUGUCACCGGUGUAUUACCCUAGUGGUCGACCGGUCUGAUGAGUCUAAAUUCAGACGAAACAGC	0.489 ± 0.043	1.95 ± 0.041	1.87 ± 0.033	0.603 ± 0.015
GCUGUCACCGGUGUAUUACCCUAGUGGUCGACCGGUCUGAUGAGUCUAAAUUUAGACGAAACAGC	0.596 ± 0.082	1.95 ± 0.043	1.9 ± 0.034	0.577 ± 0.029
GCUGUCACCGGUGUAUUACCCUAGUGGUCGACCGGUCUGAUGAGUCUAAAUUGAGACGAAACAGC	0.0713 ± 0.0046	1.88 ± 0.035	1.54 ± 0.049	0.431 ± 0.0093
GCUGUCACCGGUGUAUUACCCUAGUGGUCGACCGGUCUGAUGAGUCUGAAUGUAGACGAAACAGC	0.27 ± 0.024	1.91 ± 0.022	1.718 ± 0.0052	0.381 ± 0.07
GCUGUCACCGGUGUAUUACCCUAGUGGUCGACCGGUCUGAUGAGUCUAACACAAGACGAAACAGC	0.00339 ± 0.015	1.9 ± 0.055	1.83 ± 0.023	-0.0536 ± 0.037
GCUGUCACCGGUGUAUUACCCUAGUGGUCGACCGGUCUGAUGAGUCUUAAUUCAGACGAAACAGC	0.569 ± 0.0061	1.96 ± 0.029	1.91 ± 0.0049	0.671 ± 0.032
GCUGUCACCGGUGUAUUACCCUAGUGGUCGACCGGUCUGAUGAGUCUUAAUUUAGACGAAACAGC	-0.253 ± 0.046	1.98 ± 0.034	1.892 ± 0.01	-0.129 ± 0.063
GCUGUCACCGGUGUAUUACCCUAGUGGUCGACCGGUCUGAUGAGUCUUAAUUAAGACGAAACAGC	0.737 ± 0.055	1.92 ± 0.081	1.87 ± 0.032	0.65 ± 0.063
GCUGUCACCGGUGUAUUACCCUAGUGGUCGACCGGUCUGAUGAGUCUUACAAUAGACGAAACAGC	0.702 ± 0.073	1.9 ± 0.039	1.819 ± 0.0071	0.7079 ± 0.0057
GCUGUCACCGGUGUAUUACCCUAGUGGUCGACCGGUCUGAUGAGUCUUACAAGAGACGAAACAGC	0.335 ± 0.0078	1.928 ± 0.011	1.58 ± 0.018	0.444 ± 0.047
GCUGUCACCGGUGUAUUACCCUAGUGGUCGACCGGUCUGAUGAGUCUGAAUUGAGACGAAACAGC	0.0724 ± 0.04	1.81 ± 0.032	1.4 ± 0.076	0.434 ± 0.011
GCUGUCACCGGUGUAUUACCCUAGUGGUCGACCGGUCUGAUGAGUCUGAAUUAAGACGAAACAGC	0.374 ± 0.05	1.91 ± 0.043	1.804 ± 0.012	0.557 ± 0.089
GCUGUCACCGGUGUAUUACCCUAGUGGUCGACCGGUCUGAUGAGUCUGAAUUCAGACGAAACAGC	0.407 ± 0.28	1.929 ± 0.0056	1.9 ± 0.039	0.388 ± 0.089
